Source: paper PMC5566391

Columns and labels:
[1] = biological target: TRAIL-Trimer fusion protein (human) (UniProt P50591); assay: SDS-PAGE under non-reducing and reducing conditions; 2 µg of purified protein on 10% or 15% SDS-PAGE, Coomassie Blue; TRAIL-Trimer also by western blot
[2] = biological target: T1, TRAIL-Fc fusion protein (human), P50591; assay: as above; settings: remark: other sources report otherwise
T1 chain: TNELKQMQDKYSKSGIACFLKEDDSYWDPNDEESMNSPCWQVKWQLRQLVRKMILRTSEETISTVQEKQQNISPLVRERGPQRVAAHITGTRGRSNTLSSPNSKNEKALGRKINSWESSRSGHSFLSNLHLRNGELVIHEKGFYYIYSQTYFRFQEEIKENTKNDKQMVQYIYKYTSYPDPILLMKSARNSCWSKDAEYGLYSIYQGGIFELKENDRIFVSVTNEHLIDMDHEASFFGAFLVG

TRAIL-Trimer fusion protein (from UniProt P50591 39-281) (ligand)
stoichiometry N [1]: 3

B1: TRAIL-Fc fusion protein, P50591 39-281 (Fc fusion)
chain: TNELKQMQDKYSKSGIACFLKEDDSYWDPNDEESMNSPCWQVKWQLRQLVRKMILRTSEETISTVQEKQQNISPLVRERGPQRVAAHITGTRGRSNTLSSPNSKNEKALGRKINSWESSRSGHSFLSNLHLRNGELVIHEKGFYYIYSQTYFRFQEEIKENTKNDKQMVQYIYKYTSYPDPILLMKSARNSCWSKDAEYGLYSIYQGGIFELKENDRIFVSVTNEHLIDMDHEASFFGAFLVG
stoichiometry N [2]: 2
